Measurements as given in patent publication US20120329067A1.

Columns and labels:
[1] = molecular target: ZFN with wild-type FokI cleavage domain carrying R487D (DD architecture); assay: cell-based or functional assay
[2] = molecular target: ZFN with wild-type FokI cleavage domain carrying the DAMQS interface (DS architecture); assay: cell-based or functional assay

B1: ZFN with wild-type FokI cleavage domain carrying D483R (RR architecture) (enzyme, part only; not given: zinc finger domain and linker, part only)
chain, part: QLVKSELEEKKSELRHKLKYVPHEYIELIEIARNSTQDRILEMKVMEFFMKVYGYRGKHLGGSRKPDGAIYTVGSPIDYGVIVDTKAYSGGYNLPIGQAREMQRYVEENQTRNKHINPNEWWKVYPSSVTEFKFLFVSGHFKGNYKAQLTRLNHITNCNGAVLSVEELLIGGEMIKAGTLTLEEVRRKFNNGEINF
[1]
  stimulation of mutagenesis in an EGFP reporter cell line (P3/E4 cleavage site), relative to wt (fraction of wt activity): 0.167
[2]
  stimulation of mutagenesis in an EGFP reporter cell line (P3/E4 cleavage site), relative to wt (fraction of wt activity): 0.33
